Data as given in article PMC7840129, “Structural basis for heme-dependent NCoR binding to the transcriptional repressor REV-ERBβ” (Science Advances, 2021).

Tested on: REV-ERBβ LBD
Experiment: DSSO chemical cross-linking, SDS-PAGE
Type: binding, human
Conditions: 4 μM LBD ± heme with 2 μM RID, 600 μM DSSO, 25°C, 45 min
Procedure: To further support this stoichiometry, we performed chemical cross-linking analysis of apo or heme-bound LBD ± RID using DSSO (disuccinimidyl sulfoxide), a cross-linker that cross-links lysine residues as well as serine, threonine, and tyrosine residues (fig. S9, A and B).
Apo or heme-bound REV-ERBβ LBD and NCoR RID protein samples were cross-linked in Hepes gel filtration buffer [25 mM Hepes (pH 7.5) at room temperature, 50 mM NaCl, and 0.5 mM TCEP]. Non–cross-linked negative controls were generated using the same procedure without the addition of DSSO (Thermo Fisher Scientific). Samples included 4 μM apo LBD with or without 2 μM RID and 4 μM heme-bound LBD with or without 2 μM RID; complexes were preincubated 1 hour on ice. Reactions were initiated by spiking DSSO in DMSO at a final concentration of 600 μM in 50-μl solutions. The final molar ratio of cross-linker:protein was 100:1. The reactions were incubated at 25°C for 45 min before being quenched by the addition of tris (pH 8.0) to a final concentration of 50 mM. Each cross-link reaction was done in triplicate, and the reaction replicates were pooled after quenching. Samples (10 μl) were loaded for SDS-PAGE analysis with Coomassie staining to confirm the presence of cross-linked protein. […]

B1: WT RID: mouse NCoR RID (residues 1942 to 2208 in the X50 splice variant) (protein, UniProt Q60974 1942-2208, looked up, fragment)
chain: TITAANFIDVIITRQIASDKDARERGSQSSDSSSSLSSHRYETASDAIEVISPASSPAPPQEKPQAYQPDMVKANQAENESTRQYEGPLHHYRSQQESPSPQQQPPLPPSSQSEGMGQVPRTHRLITLADHICQIITQDFARNQVPSQASTSTFQTSPSALSSTPVRTKTSSRYSPESQSQTVLHPRPGPRVSPENLVDKSRGSRPGKSPERSHIPSEPYEPISPPQGPAVHEKQDSMLLLSQRGVDPAEQRSDSRSPGSISYLPSF
modifications: X50 splice variant
In the case of B1, the “LBD:RID complexes by cross-linking SDS-PAGE” value is reported as “two bands with molecular weights consistent with 1:1 and 2:1 LBD:RID complexes”.
